# From article PMC10954455
# B1: CSTB G4 in dsDNA (mixed)
# DNA 1: CCTGAAGCAGACAGCTAGTGAATTCGGGGCGGGGCGCGGGGCGGGGTACTTGCGTATAACTGTTCCATAGT
# DNA 2: ACTATGGAACAGTTATACGCAAGTATTTTTTTTTTTTTTTTTTTTTGAATTCACTAGCTGTCTGCTTCAGG
# B2: C-Kit G4 in dsDNA (mixed)
# DNA 1: CCTGAAGCAGACAGCTAGTGAATTCGGGCGGGCGCGAGGGAGGGTACTTGCGTATAACTGTTCCATAGT
# DNA 2: ACTATGGAACAGTTATACGCAAGTATTTTTTTTTTTTTTTTTTTTTGAATTCACTAGCTGTCTGCTTCAGG
# B3: MYC G4 in dsDNA (mixed)
# DNA 1: CCTGAAGCAGACAGCTAGTGAATTCGGGTGGGGAGGGTGGGGTACTTGCGTATAACTGTTCCATAGT
# DNA 2: ACTATGGAACAGTTATACGCAAGTATTTTTTTTTTTTTTTTTTTTTGAATTCACTAGCTGTCTGCTTCAGG
# B4: C9orf72 G4 in dsDNA (mixed)
# DNA 1: CCTGAAGCAGACAGCTAGTGAATTCGGGGCCGGGGCCGGGGCCGGGGTACTTGCGTATAACTGTTCCATAGT
# DNA 2: ACTATGGAACAGTTATACGCAAGTATTTTTTTTTTTTTTTTTTTTTGAATTCACTAGCTGTCTGCTTCAGG
# B5: BCL-2 G4 in dsDNA (mixed)
# DNA 1: CCTGAAGCAGACAGCTAGTGAATTCGGGCGCGGGAGGAAGGGGGCGGGTACTTGCGTATAACTGTTCCATAGT
# DNA 2: ACTATGGAACAGTTATACGCAAGTATTTTTTTTTTTTTTTTTTTTTGAATTCACTAGCTGTCTGCTTCAGG
# B6: PDGFRB G4 in dsDNA (mixed)
# DNA 1: CCTGAAGCAGACAGCTAGTGAATTCGGGGGGGCGGCGGGGTACTTGCGTATAACTGTTCCATAGT
# DNA 2: ACTATGGAACAGTTATACGCAAGTATTTTTTTTTTTTTTTTTTTTTGAATTCACTAGCTGTCTGCTTCAGG
# B7: non-G4 dsDNA (dsDNA)
# DNA 1: CCTGAAGCAGACAGCTAGTGAATTCAAAAAAAAAAAAAAAAAAAAATACTTGCGTATAACTGTTCCATAGT
# DNA 2: ACTATGGAACAGTTATACGCAAGTATTTTTTTTTTTTTTTTTTTTTGAATTCACTAGCTGTCTGCTTCAGG
# B8: MYOG in dsDNA (no G4 formed) (mixed)
# DNA 1: CCTGAAGCAGACAGCTAGTGAATTCGGGTGGGCTGGGAGGTACTTGCGTATAACTGTTCCATAGT
# DNA 2: ACTATGGAACAGTTATACGCAAGTATTTTTTTTTTTTTTTTTTTTTGAATTCACTAGCTGTCTGCTTCAGG
# B9: T1B1 G4 in dsDNA (mixed)
# DNA 1: CCTGAAGCAGACAGCTAGTGAATTCGTGGTGGGTGGGTGGGTACTTGCGTATAACTGTTCCATAGT
# DNA 2: ACTATGGAACAGTTATACGCAAGTATTTTTTTTTTTTTTTTTTTTTGAATTCACTAGCTGTCTGCTTCAGG
# B10: Tel G4 in dsDNA (mixed)
# DNA 1: CCTGAAGCAGACAGCTAGTGAATTCGGGTTAGGGTTAGGGTTAGGGTACTTGCGTATAACTGTTCCATAGT
# DNA 2: ACTATGGAACAGTTATACGCAAGTATTTTTTTTTTTTTTTTTTTTTGAATTCACTAGCTGTCTGCTTCAGG
# B11: T4B1 G4 in dsDNA (mixed)
# DNA 1: CCTGAAGCAGACAGCTAGTGAATTCGTTTTGGTGGGTGGGTGGGTACTTGCGTATAACTGTTCCATAGT
# DNA 2: ACTATGGAACAGTTATACGCAAGTATTTTTTTTTTTTTTTTTTTTTGAATTCACTAGCTGTCTGCTTCAGG
# B12: B4-dx2 G4 in dsDNA (mixed)
# DNA 1: CCTGAAGCAGACAGCTAGTGAATTCGGATCTGAGAATCAGATGTGGGTGGGTGGGTACTTGCGTATAACTGTTCCATAGT
# DNA 2: ACTATGGAACAGTTATACGCAAGTATTTTTTTTTTTTTTTTTTTTTGAATTCACTAGCTGTCTGCTTCAGG
# Target: Human DNA topoisomerase 1 (Top1) (Homo sapiens, UniProt P11387 1-765)
# Sequence (P11387 whole entry): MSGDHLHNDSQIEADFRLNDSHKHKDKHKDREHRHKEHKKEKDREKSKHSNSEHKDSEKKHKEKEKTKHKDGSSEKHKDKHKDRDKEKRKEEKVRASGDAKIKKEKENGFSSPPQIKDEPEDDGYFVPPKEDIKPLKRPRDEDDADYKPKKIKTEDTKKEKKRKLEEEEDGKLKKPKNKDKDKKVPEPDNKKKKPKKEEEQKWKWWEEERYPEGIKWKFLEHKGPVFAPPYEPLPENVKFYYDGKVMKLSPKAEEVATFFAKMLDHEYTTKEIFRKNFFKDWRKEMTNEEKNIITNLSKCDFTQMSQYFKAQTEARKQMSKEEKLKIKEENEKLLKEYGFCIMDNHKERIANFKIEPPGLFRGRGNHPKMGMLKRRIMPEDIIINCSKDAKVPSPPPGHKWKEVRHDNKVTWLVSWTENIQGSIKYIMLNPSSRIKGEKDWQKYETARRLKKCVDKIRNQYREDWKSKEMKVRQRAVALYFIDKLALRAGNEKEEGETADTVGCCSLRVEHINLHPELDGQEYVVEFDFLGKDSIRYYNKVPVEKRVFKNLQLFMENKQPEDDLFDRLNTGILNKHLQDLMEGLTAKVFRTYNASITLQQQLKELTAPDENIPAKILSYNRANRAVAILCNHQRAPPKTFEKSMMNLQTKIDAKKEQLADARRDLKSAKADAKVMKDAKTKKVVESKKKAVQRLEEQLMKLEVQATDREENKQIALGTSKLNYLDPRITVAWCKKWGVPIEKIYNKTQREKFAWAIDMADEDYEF
# Assay: EMSA
row,Binder,binding result
1,B1,binds
2,B2,binds
3,B3,binds
4,B4,binds
5,B5,binds
6,B6,binds
7,B7,no binding
8,B8,no binding
9,B9,binds
10,B10,binds
11,B11,binds
12,B12,binds
